Results on 38 sequences are retold here after the supplement of paper PMC7877785.

± gives the uncertainty stated by the source.

This series is described as follows: self-splicing fitness, log relative to wild type (ln ratio); higher = more splicing; Tetrahymena group I intron in knt gene, E. coli kanamycin selection, DiMSum; sequences stand for … in CUCUCU…GGAGGGAAAAGUUAUCAGGCAUGCACCUGGUAGCUAGUCUUUAAACCAAUAGAUUGCAUCGGUUUAAAAGGCAAGACCGUCAAAUUGCGGGAAAGGGGUCAACAGCCGUUCAGUACCAAGUCUCAGGGGAAACUUUGAGAUGGCCUUGCAAAGGGUAUGGUAAUAAGCUGACGGACAUGGUCCUAACCACGCAGCCAAGUCCUAAGUCAACAGAUCUUCUGUUGAUAUGGAUGCAGUUCACAGACUAAAUGUCGGUCGGGGAAGAUGUAUUCUUCUCAUAAGAUAUAGUCGGACCUCUCCUUAAUGGGAGCUAGCGGAUGAAGUGAUGCAACACUGGAGCCGCUGGGAACUAAUUUGUAUGCGAAAGUAUAUUGAUUAGUUUUGGAGUACUCGUGGUCG
The procedure, abridged:
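Pooled colonies went to amplicon sequencing on an Illumina HiSeq 2500 after six replicate transformations. The plates were LB agar with 100 μg/mL carbenicillin, 50 μM IPTG and 0.2% rhamnose, with or without 25 μg/mL kanamycin, incubated overnight at 37°C or 30°C. The E. coli BL21(DE3) library had all eight P1ex-region intron nucleotides randomised, the intron placed in the knt kanamycin-resistance gene on pET-22b(+). DiMSum fitness is the error-weighted combination of replicate fold changes, kanamycin against none, normalised to wild type.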

Regarding AGAUAGCAAUAUUACGGAUU, the “self-splicing fitness (ln)” value reads like this: (30 °C) -1.39 ± 0.1; (37 °C) 0.228 ± 0.13.
Taken in the same sequence, the figures for GAUCAGCAAUAUUACGUGCC were -1.16 ± 0.13 and -0.652 ± 0.24.
On the same counts, the results for CUUCAGCAAUAUUACGUCUC are -3.17 ± 0.2 and -3.03 ± 0.2.
On the same counts, the results for GAUCAGCAAUAUUACGGUGA are -0.622 ± 0.069 and -0.422 ± 0.075.
For the sequence CAAUAGCAAUAUUACGUGCG, the “self-splicing fitness (ln)” value is, setting by setting: (30 °C) -0.75 ± 0.072; (37 °C) -0.0882 ± 0.08.
Take AAAGAGCAAUAUUACGCCCU: the “self-splicing fitness (ln)” value by setting is: (30 °C) -2.57 ± 0.21; (37 °C) -0.718 ± 0.17.
On the same counts, the results for GCGUAGCAAUAUUACGAAGA are -1.89 ± 0.21 and -1.51 ± 0.24.
Consider CAUGAGCAAUAUUACGUAGC, for which the “self-splicing fitness (ln)” value is, setting by setting: (30 °C) -1.64 ± 0.17; (37 °C) -1.96 ± 0.26.
Take UUCAAGCAAUAUUACGAGUG: the “self-splicing fitness (ln)” value (30 °C) is -0.827 ± 0.06 and the “self-splicing fitness (ln)” value (37 °C) was -0.257 ± 0.077.
On to UGUAAGCAAUAUUACGUAAU, for which the “self-splicing fitness (ln)” value reads like this: (30 °C) -2.84 ± 0.095; (37 °C) -1.33 ± 0.12.
Take CUUCAGCAAUAUUACGGCAU: the “self-splicing fitness (ln)” value by setting is: (30 °C) -2.78 ± 0.17; (37 °C) -2.1 ± 0.2.
Take CAGCAGCAAUAUUACGGGCC: the “self-splicing fitness (ln)” value is -3.41 ± 0.3 (30 °C) and -2.78 ± 0.24 (37 °C).
In the case of AACGAGCAAUAUUACGACCG, the “self-splicing fitness (ln)” value (30 °C) was -3.46 ± 0.34.
As for UGUUAGCAAUAUUACGAGUU, the “self-splicing fitness (ln)” value by setting is: (30 °C) -3.66 ± 0.28; (37 °C) -1.85 ± 0.19.
For the sequence GACUAGCAAUAUUACGGUGG, the “self-splicing fitness (ln)” value reads like this: (30 °C) -1.91 ± 0.072; (37 °C) -1.27 ± 0.082.
Consider AAUCAGCAAUAUUACGUUUC, for which the “self-splicing fitness (ln)” value was -2.83 ± 0.14 (30 °C) and -1.2 ± 0.13 (37 °C).
For the sequence GCUUAGCAAUAUUACGAAUU, the “self-splicing fitness (ln)” value (30 °C) is -1.06 ± 0.076 and the “self-splicing fitness (ln)” value (37 °C) is -0.24 ± 0.097.
With GUGUAGCAAUAUUACGACUG, the “self-splicing fitness (ln)” value was -1.71 ± 0.25 (30 °C) and -1.47 ± 0.42 (37 °C).
Turning to AGUUAGCAAUAUUACGCGCA, the “self-splicing fitness (ln)” value runs as follows: (30 °C) -0.182 ± 0.14; (37 °C) 0.341 ± 0.21.
On the same counts, the results for UCCAAGCAAUAUUACGUCUC are -3.53 ± 0.32 and -2.02 ± 0.46.
For the sequence UCUAAGCAAUAUUACGGACU, the “self-splicing fitness (ln)” value (30 °C) is -3.51 ± 0.28 and the “self-splicing fitness (ln)” value (37 °C) was -2.84 ± 0.27.
Regarding GAGAAGCAAUAUUACGCGCU, the “self-splicing fitness (ln)” value is -2.03 ± 0.13 (30 °C) and -1.49 ± 0.13 (37 °C).
For UCAUAGCAAUAUUACGCAUC, the “self-splicing fitness (ln)” value runs as follows: (30 °C) -3.59 ± 0.3; (37 °C) -3.1 ± 0.33.
As to CUAAAGCAAUAUUACGGAGA, the “self-splicing fitness (ln)” value was -2.83 ± 0.16 (30 °C) and -2.79 ± 0.29 (37 °C).
Regarding GCAGAGCAAUAUUACGGGAU, the “self-splicing fitness (ln)” value by setting is: (30 °C) -3.53 ± 0.2; (37 °C) -2.21 ± 0.19.
On the same counts, the results for UUUAAGCAAUAUUACGCGGG are -1.81 ± 0.13 and -1.63 ± 0.14.
As for GAUGAGCAAUAUUACGGCGC, the “self-splicing fitness (ln)” value by setting is: (30 °C) -0.349 ± 0.17; (37 °C) 0.649 ± 0.25.
Consider CAGGAGCAAUAUUACGGGUA, for which the “self-splicing fitness (ln)” value runs as follows: (30 °C) -4.12 ± 0.42; (37 °C) -3.31 ± 0.35.
Turning to AGACAGCAAUAUUACGACGA, the “self-splicing fitness (ln)” value was -1.29 ± 0.13 (30 °C) and -0.547 ± 0.12 (37 °C).
For GGCUAGCAAUAUUACGUGUG, the “self-splicing fitness (ln)” value reads like this: (30 °C) -0.503 ± 0.085; (37 °C) -0.362 ± 0.083.
Take GUUUAGCAAUAUUACGACUC: the “self-splicing fitness (ln)” value is 0.0633 ± 0.12 (30 °C) and 0.248 ± 0.15 (37 °C).
As for AGCUAGCAAUAUUACGGGUA, the “self-splicing fitness (ln)” value is -1.27 ± 0.073 (30 °C) and -0.597 ± 0.082 (37 °C).
Take UCCCAGCAAUAUUACGUGGG: the “self-splicing fitness (ln)” value runs as follows: (30 °C) -3.37 ± 0.1; (37 °C) -2.85 ± 0.16.
For the sequence CCCUAGCAAUAUUACGUCGG, the “self-splicing fitness (ln)” value by setting is: (30 °C) -3.32 ± 0.22; (37 °C) -2.57 ± 0.23.
For CCUCAGCAAUAUUACGUUAA, the “self-splicing fitness (ln)” value is -2.89 ± 0.17 (30 °C) and -2.96 ± 0.23 (37 °C).
For the sequence UAAGAGCAAUAUUACGAAGA, the “self-splicing fitness (ln)” value (37 °C) was -1.98 ± 0.38.
Consider AUUCAGCAAUAUUACGCAAC, for which the “self-splicing fitness (ln)” value by setting is: (30 °C) -2.05 ± 0.18; (37 °C) -0.188 ± 0.17.
Taken in the same sequence, the figures for CUUGAGCAAUAUUACGUUAC were -3 ± 0.33 and -2.44 ± 0.32.
